{"source": "paper PMC8556268", "about": "(Communications Biology, 2021)", "binders": {"B1": {"name": "tcTRP9_(3)-VHH678_(3) (VHH)", "VHH": "QVQLQESGGGLVQAGGSLRLSCAASGRTFSEYAMGWFRQAPGKEREFVATISWSGGSTYYTRSVKGRFTISRDNAKNTVYLQMNSLKPDDTAVYYCAAAGLGTVVSEWDYDYDYWGQGTQVTVSS", "notes": "also called tcTRP9x3_VHH6783; construct 678; source: E. coli BL21(DE3)-RIL, purified (Ni-NTA, dialysis into 1x PBS)"}, "B2": {"name": "tcTRP9_(3)-VHH680_(3) (VHH)", "VHH": "B1 VHH", "notes": "also called tcTRP9x3_VHH6803; construct 680; source: E. coli BL21(DE3)-RIL, purified (Ni-NTA, dialysis into 1x PBS)"}, "B3": {"name": "tcTRP9_(3)-VHH684_(3) (VHH)", "VHH": "B1 VHH", "notes": "also called tcTRP9x3_VHH6843; construct 684; source: E. coli BL21(DE3)-RIL, purified (Ni-NTA, dialysis into 1x PBS)"}, "B4": {"name": "tcTRP9_(3)-VHH679_(3) (VHH)", "VHH": "B1 VHH", "notes": "also called tcTRP9x3_VHH6793; construct 679; source: E. coli BL21(DE3)-RIL, purified (Ni-NTA, dialysis into 1x PBS)"}, "B5": {"name": "tcTRP9_(3)-VHH3 construct 680 (trimeric tcTRP9_(3) with VHH 72D61R on each subunit) (VHH)", "VHH": "B1 VHH", "notes": "also called tcTRP9x3-VHH3; Trimeric VHH 72D61R; source: E. coli, purified (Ni-NTA, dialysis into 1x PBS)"}, "B6": {"name": "tcTRP9_(3)-VHH683_(3) (VHH)", "VHH": "B1 VHH", "notes": "also called tcTRP9x3_VHH6833; construct 683; source: E. coli BL21(DE3)-RIL, purified (Ni-NTA, dialysis into 1x PBS)"}, "B7": {"name": "tcTRP9_(3)-VHH682_(3) (VHH)", "VHH": "B1 VHH", "notes": "also called tcTRP9x3_VHH6823; construct 682; source: E. coli BL21(DE3)-RIL, purified (Ni-NTA, dialysis into 1x PBS)"}, "B8": {"name": "tcTRP9_(3)-VHH681_(3) (VHH)", "VHH": "B1 VHH", "notes": "also called tcTRP9x3_VHH6813; construct 681; source: E. coli BL21(DE3)-RIL, purified (Ni-NTA, dialysis into 1x PBS)"}, "B9": {"name": "tcTRP9_(3)-VHH681_(3) (trimeric tcTRP9_(3) with VHH 72D61R on each subunit, construct 681) (VHH)", "VHH": "B1 VHH", "notes": "also called tcTRP9_(3)-VHH3; tcTRP9x3-VHH3; source: E. coli, purified (Ni-NTA, dialysis into 1x PBS)"}, "B10": {"name": "tcTRP9x3_VHH685_(3) (VHH)", "VHH": "B1 VHH", "notes": "also called construct 685; source: E. coli BL21(DE3)-RIL, purified (Ni-NTA, dialysis into 1x PBS)"}}, "settings_in_all_cases": "both partners purified", "key": {"[1]": {"target": "T1, SARS-CoV-2 spike protein receptor-binding domain (RBD) (SARS-CoV-2, strain  …, UniProt P0DTC2)", "T1 construct": "also called SARS-CoV-2 RBD; SARS RBD; source: provided by Roland Strong, Fred Hutchinson Cancer Research Center", "test": "ELISA"}, "[2]": {"target": "T2, SARS-CoV-2 spike protein receptor-binding domain (RBD), coated on ELISA plates (SARS-CoV-2, strain  …, UniProt P0DTC2)", "T2 construct": "also called SARS-CoV-2 RBD; SARS-CoV2 RBD; source: provided (Roland Strong, Fred Hutchinson Cancer Research Center)", "test": "ELISA"}, "[3]": {"target": "enzymatically biotinylated SARS-CoV-2 spike protein receptor-binding domain (RBD) (SARS-CoV-2, strain  …, UniProt P0DTC2)"}, "[4]": {"target": "enzymatically biotinylated SARS-CoV-2 RBD, loaded on streptavidin biosensors (SARS-CoV-2, strain  …, UniProt P0DTC2)"}}, "note": "Values joined by “and” are separate entries in the source; they are usually repeats but may differ in a detail not shown here. Identical values can stand only once."}
{"binder": "B1", "values": [{"measurement": "EC50", "setting": "[1]", "value": 2.06, "unit": "nM"}]}
{"binder": "B2", "values": [{"measurement": "EC50", "setting": "[1]", "value": 8.01, "unit": "nM"}]}
{"binder": "B3", "values": [{"measurement": "EC50", "setting": "[1]", "value": 1.89, "unit": "nM"}]}
{"binder": "B4", "values": [{"measurement": "EC50", "setting": "[1]", "value": 5.52, "unit": "nM"}]}
{"binder": "B5", "values": [{"measurement": "EC50", "setting": "[2]", "value": 12, "unit": "nM"}]}
{"binder": "B6", "values": [{"measurement": "EC50", "setting": "[1]", "value": 2.69, "unit": "nM"}]}
{"binder": "B7", "values": [{"measurement": "EC50", "setting": "[1]", "value": 4.65, "unit": "nM"}]}
{"binder": "B8", "values": [{"measurement": "koff", "setting": "[3]", "value": "3.98e-05", "unit": "s⁻¹"}]}
{"binder": "B9", "values": [{"measurement": "EC50", "setting": "[2]", "value": "0.4 nM and ~0.64 nM"}, {"measurement": "Kd", "setting": "[4]", "value": "~0.43", "unit": "nM"}]}
{"binder": "B10", "values": [{"measurement": "EC50", "setting": "[1]", "value": 1.88, "unit": "nM"}]}
